The assay addresses integrin α7β1 on C2C12 murine myoblasts (murine) (UniProt Q61738). As to the kind of experiment: cell-based or functional assay.

The substance “human recombinant βIG-H3 (Transforming Growth Factor-β Induced Gene-Human Clone 3 protein), expressed in CHO cells and purified (from UniProt Q15582 1-683) (ligand)” had a C2C12 skeletal muscle cell attachment to a βIG-H3 substratum after function-perturbing anti-α7 antibody (% reduction of attachment) of 80.

(Values after US20030211141A1.)
